This note sets out measurements from patent US7592156B2, “Synthetic dog/human chimeric C-C chemokine receptor 2B” (Wyeth, priority 2006, dated 2009).

For one experiment, the target named is T1, chimeric dog-human CCR2B (Homo sapiens, UniProt P41597, A111V/A286I/C181V/C75S/D36S/E105G/E278K/F108L/F271S/G175R/G191S/G197A/G224A/G273N/G41A/I128T/I163V/I208V/I217V/I263L/I300V/I40V/I93L/K180T/K183I/K38R/L115S/L166M/L274V/L76M/L95I/L97F/N110E/N199K/N207S/N266S/P195Q/Q43G/R196Q/R240K/R243K/S101Y/T247V/T257A/T287M/V107L/V162G/V173L/V187F/V189S/V244L/Y188S/Y193Q/Y259N).
T1 construct: expressed in transfected cells
T1 sequence (P41597 1-360 isoform P41597-2 D36S/K38R/I40V/G41A/Q43G/C75S/L76M/I93L/L95I/L97F/S101Y/E105G/V107L/F108L/N110E/A111V/L115S/I128T/V162G/I163V/L166M/V173L/G175R/K180T/C181V/K183I/V187F/Y188S/V189S/G191S/Y193Q/P195Q/R196Q/G197A/N199K/N207S/I208V/I217V/G224A/R240K/R243K/V244L/T247V/T257A/Y259N/I263L/N266S/F271S/G273N/L274V/E278K/A286I/T287M/I300V): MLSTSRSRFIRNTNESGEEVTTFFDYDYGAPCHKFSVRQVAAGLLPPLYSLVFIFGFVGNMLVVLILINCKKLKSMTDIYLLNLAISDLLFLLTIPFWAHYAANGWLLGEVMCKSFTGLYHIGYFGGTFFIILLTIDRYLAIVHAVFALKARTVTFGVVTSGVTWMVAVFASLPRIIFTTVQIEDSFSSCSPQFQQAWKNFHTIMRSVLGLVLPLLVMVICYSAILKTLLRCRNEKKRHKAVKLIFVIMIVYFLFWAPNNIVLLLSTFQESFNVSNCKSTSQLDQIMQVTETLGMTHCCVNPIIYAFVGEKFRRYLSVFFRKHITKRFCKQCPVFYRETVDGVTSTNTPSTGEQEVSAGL
In words: FLIPR calcium mobilization agonist assay in CHO-K1 cells expressing chimeric dog-human CCR2B. In kind it is cell-based. On the procedure:
The chimeric CCR2B/cDNA3.1 plasmid of Example 1 was expressed in CHO-K1 cells using the Lipofectamine-Plus reagent (Invitrogen, Carlsbad, Calif., USA) according to manufacturer's instructions, and the resulting stable cell lines following selection with the antibiotic G418 were assayed for MCP-1-dependent calcium mobilization in a FLIPR assay. Cells were plated at 15,000 per well in a 384-well assay plate one day prior to assay. Calcium-3 indicator dye (Molecular Devices, Sunnyvale, Calif., USA) was added 1 hr prior to assay, and cells were incubated at 37° C. For the agonist assay, human MCP-1 was added to cells, followed immediately by reading of calcium mobilization on the FLIPR. RFU counts (Max-Min) were recorded for each MCP-1 concentration assayed. For the antagonist assay, the antagonist was added to the cells 20 min prior to addition of MCP-1. The MCP-1 activation of calcium mobilization in CCR2B/CHOK1 cells of Example 2 was extended to include examination of the effects of mouse and canine MCP-1 (FIG. 4A). […] The qualitative similarity of the results in the CHOK1 cells expressing the chimeric receptor and THP-1 cells, with their endogenous expression of the human receptor, lends evidence that the chimeric receptor faithfully recapitulates the activation pharmacology of the native receptor.
(Calcium assays in cells follow changes in intracellular calcium, usually with a dye or a luminescent sensor.)

In the next experiment the target is T2, human CCR2B (Homo sapiens, UniProt P41597).
T2 construct: THP-1 cells, with their endogenous expression of the human receptor; endogenous in cells; host or cells: THP-1 (human monocyte cell line)
T2 sequence (P41597 1-360 isoform P41597-2): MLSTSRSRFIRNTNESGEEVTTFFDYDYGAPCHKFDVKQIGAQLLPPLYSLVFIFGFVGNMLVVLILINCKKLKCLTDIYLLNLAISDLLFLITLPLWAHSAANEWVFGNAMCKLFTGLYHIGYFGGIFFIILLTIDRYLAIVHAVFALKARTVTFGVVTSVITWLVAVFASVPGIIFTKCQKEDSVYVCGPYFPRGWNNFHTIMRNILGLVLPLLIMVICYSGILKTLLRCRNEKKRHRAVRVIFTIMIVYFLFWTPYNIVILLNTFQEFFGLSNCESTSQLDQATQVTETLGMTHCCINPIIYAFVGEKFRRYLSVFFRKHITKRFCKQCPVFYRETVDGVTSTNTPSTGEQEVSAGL
In words: FLIPR calcium mobilization agonist assay in THP-1 cells. To be noted: endogenous human CCR2B expression. Format: cell-based.

For the substance “cMCP-1: canine monocyte chemoattractant protein-1 (chemokine)”, the EC50 (in general, the concentration that produces a half-maximal response) with chimeric dog-human CCR2B came to 138 nM; with human CCR2B, 53 nM.

Take “mouse MCP: mouse monocyte chemoattractant protein-1 (chemokine)”: the EC50 worked out at 38 nM with chimeric dog-human CCR2B and 30 nM in the experiment with human CCR2B.
